Assay [1] concerns the target T1, HER2 (on HER2高表达细胞株 N87 / BT474) (UniProt P04626 23-1255, limits assumed). The assay can be described thus: cell-based or functional assay.
The target of assay [2] is T2, HER2-DI-DIII-L295P/H296N (Homo sapiens (Human), UniProt P04626 23-510).
T2 construct: also called HER2-DI-DIII-L295/H296N
The assay can be described thus: ELISA, plate coated with HER2-DI-DIII-L295P/H296N. For orientation: ELISA stands for enzyme-linked immunosorbent assay.

Assay [3] deals with T1, HER2 (on HER2高表达细胞株 N87 / BT474). Nature of the assay: cell-based or functional assay. The source holds these as a separate data set.
For assay [4], the target named is T3, HER2-DI-DIII-his (Homo sapiens (Human), UniProt P04626 23-510).
T3 construct: also called HER2-ECD-DI-DIII
The assay can be described thus: ELISA, plate coated with HER2-DI-DIII-his, detection with HRP-anti human IgG Fc.

Assay [5] has as its target T4, HER2-DI-DIII-V483A/D480A/E485A (Homo sapiens (Human), UniProt P04626 23-513).
T4 chain: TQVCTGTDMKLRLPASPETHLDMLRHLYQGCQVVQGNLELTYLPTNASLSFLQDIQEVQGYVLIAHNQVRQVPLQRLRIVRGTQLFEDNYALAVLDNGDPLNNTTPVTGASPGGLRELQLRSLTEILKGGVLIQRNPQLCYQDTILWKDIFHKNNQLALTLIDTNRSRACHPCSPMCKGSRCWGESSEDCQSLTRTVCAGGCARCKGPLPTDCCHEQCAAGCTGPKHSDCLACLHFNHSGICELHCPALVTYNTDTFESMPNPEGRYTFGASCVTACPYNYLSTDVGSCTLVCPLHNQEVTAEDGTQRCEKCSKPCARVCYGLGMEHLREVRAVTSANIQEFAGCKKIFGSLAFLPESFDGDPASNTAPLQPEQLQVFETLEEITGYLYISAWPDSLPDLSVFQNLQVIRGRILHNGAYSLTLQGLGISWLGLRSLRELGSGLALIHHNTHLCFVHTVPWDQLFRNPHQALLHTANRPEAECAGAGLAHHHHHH
The assay can be described thus: ELISA, plate coated with HER2-DI-DIII-V483A/D480A/E485A.

B1: 抗HER2抗体612 (antibody, V domains shown)
VH: QVQLVQSGAEVKKPGASVKVSCKGSGYTFTDYAIHWVRQAPGQSLEWIGVFSIYYENINYNQKFKGRATMTVDKSTSTAYMELRSLRSDDTAVYYCARRDGGTINYWGQGTLVTVSS
VL: DVVMTQSPLSLPVTLGQPASISCRSSQSLVHSNGNTYLHWYQQRPGQSPRLLIYKVSNRFSGVPDRFSGSGSGTDFTLKISRVEAEDVGVYFCSQSTHIPWTFGQGTKVEIK
notes: No visible text gives the full heavy chain; also called 19H6-Hu
The term EC50 denotes the concentration that produces a half-maximal response. A lower EC50 goes with greater potency. For B1, the “最大抑制率(%), BT474细胞增殖 (CCK8)” value in assay [1] is 47.1%. Further, the values for the EC50 in assay [2] and in assay [4] were 0.027 nM and 0.043 nM, respectively. For the same molecule, the “最大抑制率(%), N87细胞增殖 (CCK8)” value in assay [3] was found to be 41.8%. For the same molecule, in assay [5], the binding result was “no binding (tested: 最高浓度为10nM)”.

The values are drawn from CN114805590A (SUNSHINE GUOJIAN PHARMACEUTICAL SHANGHAI CO LTD, dated 2022).
